Data taken from the MegaScale stability set (Tsuboyama et al. 2023).

B1: 1ZHC (parent)
chain: HEFRDEISVLKANNPHFDKIFEKHNQLDDDIKTAEQQNASDAEVSHMKKQKLKLKDEIHSMIIEYREK

Variants of: B1
Test: folding stability dG (cDNA display proteolysis); higher = more stable
Conditions: PBS, room temperature

Variant	folding stability dG
HEFRDEISVLKANNPHFDKIFEKHNQLDDDIKTAEQQNASDAEVSHMKKQKLRLKDEIHSMIIEYREK [K53R]	0.995 kcal/mol
HEFRDEISVLKANNPHFDKIFEKHNQLDDDIKTAEQQNASDAEVSHMKKQKLTLKDEIHSMIIEYREK [K53T]	0.66 kcal/mol
HEFRDEISVLKANNPHFDKIFEKHNQLDDDIKTAEQQNASDAEVSHMKKQKLPLKDEIHSMIIEYREK [K53P]	-0.251 kcal/mol
HEFRDEISVLKANNPHFDKIFEKHNQLDDDIKTAEQQNASDAEVSHMKKQKLCLKDEIHSMIIEYREK [K53C]	0.879 kcal/mol
HEFRDEISVLKANNPHFDKIFEKHNQLDDDIKTAEQQNASDAEVSHMKKQKLILKDEIHSMIIEYREK [K53I]	0.711 kcal/mol
HEFRDEISVLKANNPHFDKIFEKHNQLDDDIKTAEQQNASDAEVSHMKKQKLALKDEIHSMIIEYREK [K53A]	1.12 kcal/mol
HEFRDEISVLKANNPHFDKIFEKHNQLDDDIKTAEQQNASDAEVSHMKKQKLFLKDEIHSMIIEYREK [K53F]	0.261 kcal/mol
HEFRDEISVLKANNPHFDKIFEKHNQLDDDIKTAEQQNASDAEVSHMKKQKLQLKDEIHSMIIEYREK [K53Q]	0.53 kcal/mol
HEFRDEISVLKANNPHFDKIFEKHNQLDDDIKTAEQQNASDAEVSHMKKQKLNLKDEIHSMIIEYREK [K53N]	-0.015 kcal/mol
HEFRDEISVLKANNPHFDKIFEKHNQLDDDIKTAEQQNASDAEVSHMKKQKLDLKDEIHSMIIEYREK [K53D]	-0.039 kcal/mol
HEFRDEISVLKANNPHFDKIFEKHNQLDDDIKTAEQQNASDAEVSHMKKQKLVLKDEIHSMIIEYREK [K53V]	0.811 kcal/mol
HEFRDEISVLKANNPHFDKIFEKHNQLDDDIKTAEQQNASDAEVSHMKKQKLELKDEIHSMIIEYREK [K53E]	0.543 kcal/mol
HEFRDEISVLKANNPHFDKIFEKHNQLDDDIKTAEQQNASDAEVSHMKKQKLMLKDEIHSMIIEYREK [K53M]	1.05 kcal/mol
HEFRDEISVLKANNPHFDKIFEKHNQLDDDIKTAEQQNASDAEVSHMKKQKLWLKDEIHSMIIEYREK [K53W]	0.603 kcal/mol
HEFRDEISVLKANNPHFDKIFEKHNQLDDDIKTAEQQNASDAEVSHMKKQKLSLKDEIHSMIIEYREK [K53S]	0.351 kcal/mol
HEFRDEISVLKANNPHFDKIFEKHNQLDDDIKTAEQQNASDAEVSHMKKQKLYLKDEIHSMIIEYREK [K53Y]	0.301 kcal/mol
HEFRDEISVLKANNPHFDKIFEKHNQLDDDIKTAEQQNASDAEVSHMKKQKLHLKDEIHSMIIEYREK [K53H]	0.266 kcal/mol
HEFRDEISVLKANNPHFDKIFEKHNQLDDDIKTAEQQNASDAEVSHMKKQKLLLKDEIHSMIIEYREK [K53L]	1.16 kcal/mol
HEFRDEISVLKANNPHFDKIFEKHNQLDDDIKTAEQQNASDAEVSHMKKQKWKLKDEIHSMIIEYREK [L52W]	0.394 kcal/mol
HEFRDEISVLKANNPHFDKIFEKHNQLDDDIKTAEQQNASDAEVSHMKKQKTKLKDEIHSMIIEYREK [L52T]	0.288 kcal/mol
HEFRDEISVLKANNPHFDKIFEKHNQLDDDIKTAEQQNASDAEVSHMKKQKAKLKDEIHSMIIEYREK [L52A]	1.08 kcal/mol
HEFRDEISVLKANNPHFDKIFEKHNQLDDDIKTAEQQNASDAEVSHMKKQKCKLKDEIHSMIIEYREK [L52C]	0.71 kcal/mol
HEFRDEISVLKANNPHFDKIFEKHNQLDDDIKTAEQQNASDAEVSHMKKQKVKLKDEIHSMIIEYREK [L52V]	0.329 kcal/mol
HEFRDEISVLKANNPHFDKIFEKHNQLDDDIKTAEQQNASDAEVSHMKKQKHKLKDEIHSMIIEYREK [L52H]	0.494 kcal/mol
HEFRDEISVLKANNPHFDKIFEKHNQLDDDIKTAEQQNASDAEVSHMKKQKNKLKDEIHSMIIEYREK [L52N]	0.952 kcal/mol
HEFRDEISVLKANNPHFDKIFEKHNQLDDDIKTAEQQNASDAEVSHMKKQKSKLKDEIHSMIIEYREK [L52S]	0.812 kcal/mol
HEFRDEISVLKANNPHFDKIFEKHNQLDDDIKTAEQQNASDAEVSHMKKQKQKLKDEIHSMIIEYREK [L52Q]	1.28 kcal/mol

Variant	folding stability dG
HEFRDEISVLKANNPHFDKIFEKHNQLDDDIKTAEQQNASDAEVSHMKKQKIKLKDEIHSMIIEYREK [L52I]	0.913 kcal/mol
HEFRDEISVLKANNPHFDKIFEKHNQLDDDIKTAEQQNASDAEVSHMKKQKMKLKDEIHSMIIEYREK [L52M]	1.28 kcal/mol
HEFRDEISVLKANNPHFDKIFEKHNQLDDDIKTAEQQNASDAEVSHMKKQKEKLKDEIHSMIIEYREK [L52E]	1.17 kcal/mol
HEFRDEISVLKANNPHFDKIFEKHNQLDDDIKTAEQQNASDAEVSHMKKQKDKLKDEIHSMIIEYREK [L52D]	1.02 kcal/mol
HEFRDEISVLKANNPHFDKIFEKHNQLDDDIKTAEQQNASDAEVSHMKKQKGKLKDEIHSMIIEYREK [L52G]	-0.063 kcal/mol
HEFRDEISVLKANNPHFDKIFEKHNQLDDDIKTAEQQNASDAEVSHMKKQKKKLKDEIHSMIIEYREK [L52K]	0.948 kcal/mol
HEFRDEISVLKANNPHFDKIFEKHNQLDDDIKTAEQQNASDAEVSHMKKQKYKLKDEIHSMIIEYREK [L52Y]	0.359 kcal/mol
HEFRDEISVLKANNPHFDKIFEKHNQLDDDIKTAEQQNASDAEVSHMKKQKFKLKDEIHSMIIEYREK [L52F]	0.588 kcal/mol
HEFRDEISVLKANNPHFDKIFEKHNQLDDDIKTAEQQNASDAEVSHMKKQKLKWKDEIHSMIIEYREK [L54W]	-0.913 kcal/mol
HEFRDEISVLKANNPHFDKIFEKHNQLDDDIKTAEQQNASDAEVSHMKKQKLKIKDEIHSMIIEYREK [L54I]	-0.626 kcal/mol
HEFRDEISVLKANNPHFDKIFEKHNQLDDDIKTAEQQNASDAEVSHMKKQKLKMKDEIHSMIIEYREK [L54M]	-0.648 kcal/mol
HEFRDEISVLKANNPHFDKIFEKHNQLDDDIKTAEQQNASDAEVSHMKKQKLKCKDEIHSMIIEYREK [L54C]	-0.495 kcal/mol
HEFRDEISVLKANNPHFDKIFEKHNQLDDDIKTAEQQNASDAEVSHMKKQKLKYKDEIHSMIIEYREK [L54Y]	0.165 kcal/mol
HEFRDEISVLKANNPHFDKIFEKHNQLDDDIKTAEQQNASDAEVSHMKKQHLKLKDEIHSMIIEYREK [K51H]	0.299 kcal/mol
HEFRDEISVLKANNPHFDKIFEKHNQLDDDIKTAEQQNASDAEVSHMKKQNLKLKDEIHSMIIEYREK [K51N]	-0.683 kcal/mol
HEFRDEISVLKANNPHFDKIFEKHNQLDDDIKTAEQQNASDAEVSHMKKQQLKLKDEIHSMIIEYREK [K51Q]	0.766 kcal/mol
HEFRDEISVLKANNPHFDKIFEKHNQLDDDIKTAEQQNASDAEVSHMKKQMLKLKDEIHSMIIEYREK [K51M]	1.52 kcal/mol
HEFRDEISVLKANNPHFDKIFEKHNQLDDDIKTAEQQNASDAEVSHMKKQSLKLKDEIHSMIIEYREK [K51S]	0.403 kcal/mol
HEFRDEISVLKANNPHFDKIFEKHNQLDDDIKTAEQQNASDAEVSHMKKQYLKLKDEIHSMIIEYREK [K51Y]	1.5 kcal/mol
HEFRDEISVLKANNPHFDKIFEKHNQLDDDIKTAEQQNASDAEVSHMKKQFLKLKDEIHSMIIEYREK [K51F]	1.65 kcal/mol
HEFRDEISVLKANNPHFDKIFEKHNQLDDDIKTAEQQNASDAEVSHMKKQWLKLKDEIHSMIIEYREK [K51W]	1.57 kcal/mol
HEFRDEISVLKANNPHFDKIFEKHNQLDDDIKTAEQQNASDAEVSHMKKQLLKLKDEIHSMIIEYREK [K51L]	2.36 kcal/mol
HEFRDEISVLKANNPHFDKIFEKHNQLDDDIKTAEQQNASDAEVSHMKKQILKLKDEIHSMIIEYREK [K51I]	1.3 kcal/mol
HEFRDEISVLKANNPHFDKIFEKHNQLDDDIKTAEQQNASDAEVSHMKKQVLKLKDEIHSMIIEYREK [K51V]	0.721 kcal/mol
HEFRDEISVLKANNPHFDKIFEKHNQLDDDIKTAEQQNASDAEVSHMKKQRLKLKDEIHSMIIEYREK [K51R]	1.29 kcal/mol
HEFRDEISVLKANNPHFDKIFEKHNQLDDDIKTAEQQNASDAEVSHMKKQGLKLKDEIHSMIIEYREK [K51G]	-0.631 kcal/mol
HEFRDEISVLKANNPHFDKIFEKHNQLDDDIKTAEQQNASDAEVSHMKKQKLKLKHEIHSMIIEYREK [D56H]	1.07 kcal/mol

Variant	folding stability dG
HEFRDEISVLKANNPHFDKIFEKHNQLDDDIKTAEQQNASDAEVSHMKKQKLKLKGEIHSMIIEYREK [D56G]	0.971 kcal/mol
HEFRDEISVLKANNPHFDKIFEKHNQLDDDIKTAEQQNASDAEVSHMKKQKLKLKIEIHSMIIEYREK [D56I]	1.25 kcal/mol
HEFRDEISVLKANNPHFDKIFEKHNQLDDDIKTAEQQNASDAEVSHMKKQKLKLKKEIHSMIIEYREK [D56K]	1.22 kcal/mol
HEFRDEISVLKANNPHFDKIFEKHNQLDDDIKTAEQQNASDAEVSHMKKQKLKLKFEIHSMIIEYREK [D56F]	1.18 kcal/mol
HEFRDEISVLKANNPHFDKIFEKHNQLDDDIKTAEQQNASDAEVSHMKKQKLKLKCEIHSMIIEYREK [D56C]	1.36 kcal/mol
HEFRDEISVLKANNPHFDKIFEKHNQLDDDIKTAEQQNASDAEVSHMKKQKLKLKEEIHSMIIEYREK [D56E]	1.29 kcal/mol
HEFRDEISVLKANNPHFDKIFEKHNQLDDDIKTAEQQNASDAEVSHMKKQKLKLKAEIHSMIIEYREK [D56A]	1.27 kcal/mol
HEFRDEISVLKANNPHFDKIFEKHNQLDDDIKTAEQQNASDAEVSHMKKQKLKLDDEIHSMIIEYREK [K55D]	0.359 kcal/mol
HEFRDEISVLKANNPHFDKIFEKHNQLDDDIKTAEQQNASDAEVSHMKKQKLKLQDEIHSMIIEYREK [K55Q]	1.28 kcal/mol
HEFRDEISVLKANNPHFDKIFEKHNQLDDDIKTAEQQNASDAEVSHMKKQKLKLEDEIHSMIIEYREK [K55E]	0.926 kcal/mol
HEFRDEISVLKANNPHFDKIFEKHNQLDDDIKTAEQQNASDAEVSHMKKQKLKLRDEIHSMIIEYREK [K55R]	1.51 kcal/mol
HEFRDEISVLKANNPHFDKIFEKHNQLDDDIKTAEQQNASDAEVSHMKKQKLKLVDEIHSMIIEYREK [K55V]	0.758 kcal/mol
HEFRDEISVLKANNPHFDKIFEKHNQLDDDIKTAEQQNASDAEVSHMKKQKLKLYDEIHSMIIEYREK [K55Y]	1.47 kcal/mol
HEFRDEISVLKANNPHFDKIFEKHNQLDDDIKTAEQQNASDAEVSHMKKQKLKLSDEIHSMIIEYREK [K55S]	1.14 kcal/mol
HEFRDEISVLKANNPHFDKIFEKHNQLDDDIKTAEQQNASDAEVSHMKKQKLKLGDEIHSMIIEYREK [K55G]	0.766 kcal/mol
HEFRDEISVLKANNPHFDKIFEKHNQLDDDIKTAEQQNASDAEVSHMKKQKLKLWDEIHSMIIEYREK [K55W]	2.94 kcal/mol
HEFRDEISVLKANNPHFDKIFEKHNQLDDDIKTAEQQNASDAEVSHMKKQKLKLHDEIHSMIIEYREK [K55H]	1.27 kcal/mol
HEFRDEISVLKANNPHFDKIFEKHNQLDDDIKTAEQQNASDAEVSHMKKQKLKLMDEIHSMIIEYREK [K55M]	1.72 kcal/mol
HEFRDEISVLKANNPHFDKIFEKHNQLDDDIKTAEQQNASDAEVSHMKKQKLKLNDEIHSMIIEYREK [K55N]	0.726 kcal/mol
HEFRDEISVLKANNPHFDKIFEKHNQLDDDIKTAEQQNASDAEVSHMKKQKLKLCDEIHSMIIEYREK [K55C]	2.15 kcal/mol
HEFRDEISVLKANNPHFDKIFEKHNQLDDDIKTAEQQNASDAEVSHMKKQKLKLFDEIHSMIIEYREK [K55F]	1.65 kcal/mol
HEFRDEISVLKANNPHFDKIFEKHNQLDDDIKTAEQQNASDAEVSHMKKQKLKLLDEIHSMIIEYREK [K55L]	1.45 kcal/mol
HEFRDEISVLKANNPHFDKIFEKHNQLDDDIKTAEQQNASDAEVSHMKKQKLKLTDEIHSMIIEYREK [K55T]	0.273 kcal/mol
HEFRDEISVLKANNPHFDKIFEKHNQLDDDIKTAEQQNASDAEVSHMKKQKLKLIDEIHSMIIEYREK [K55I]	1.09 kcal/mol
HEFRDEISVLKANNPHFDKIFEKHNQLDDDIKTAEQQNASDAEVSHMKKQKLKLADEIHSMIIEYREK [K55A]	1.67 kcal/mol
